Consider three molecules from patent US20170022275A1 (Dana-Farber, published 2017).

In experiment [1] the target is MICA antigen (UniGene Hs.130838) with C-terminal BirA tag (human) (UniProt Q29983). Put plainly: flow cytometry of MICA-coated streptavidin beads, Alexa488 anti-human IgG; antibody 0.24 µg/ml; uncoated SA bead: 2.3. In general terms: Flow cytometry measures light scatter and fluorescence of single cells or particles in a stream.
Experiment [2] shares this target. Briefly: flow cytometry of MICA-coated streptavidin beads, Alexa488 anti-human IgG; antibody 30 µg/ml; uncoated SA bead: 3.53.
The target is the same in experiment [3]. Put plainly: flow cytometry of MICA-coated streptavidin beads, Alexa488 anti-human IgG; antibody 6 µg/ml; uncoated SA bead: 2.63.
Experiment [4] has the same target. Briefly: flow cytometry of MICA-coated streptavidin beads, Alexa488 anti-human IgG; antibody 0.05 µg/ml; uncoated SA bead: 2.18.
Experiment [5] has the same target. Briefly: flow cytometry of MICA-coated streptavidin beads, Alexa488 anti-human IgG; antibody 1.2 µg/ml; uncoated SA bead: 2.16.
Experiment [6] has the same target. Briefly: flow cytometry of MICA-coated streptavidin beads, antibody directly PE-conjugated; legend box says 0.005ug, the label in the panel says 1.2 µg/ml (they do not agree); uncoated SA bead: 1.98.
The target of experiment [7] is MICA on the surface of cells (human) (UniProt Q29983). Put plainly: flow cytometry on B16 melanoma cells transduced with human MICA, antibody 10 µg/ml; B16 MICA unstained 11.4; same antibody on untransduced B16: 7.49 (B16 unstained 7.12).
MICA on the surface of cells (human), sequence (Q29983 24-383): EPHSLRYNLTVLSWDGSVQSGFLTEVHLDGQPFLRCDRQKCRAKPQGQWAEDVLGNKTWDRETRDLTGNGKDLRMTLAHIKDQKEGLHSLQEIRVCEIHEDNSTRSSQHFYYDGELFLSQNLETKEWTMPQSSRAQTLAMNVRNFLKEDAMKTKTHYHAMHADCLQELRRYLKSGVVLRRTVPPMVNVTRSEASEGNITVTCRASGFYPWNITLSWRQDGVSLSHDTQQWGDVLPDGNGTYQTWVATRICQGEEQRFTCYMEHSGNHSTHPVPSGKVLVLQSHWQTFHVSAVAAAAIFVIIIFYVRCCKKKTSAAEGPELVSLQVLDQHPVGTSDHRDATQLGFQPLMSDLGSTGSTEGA
Experiment [8] has as its target MICA antigen (UniGene Hs.130838) with C-terminal BirA tag (human) (UniProt Q29983). Put plainly: flow cytometry of MICA-coated streptavidin beads, antibody directly PE-conjugated; legend box says 0.001ug, the label in the panel says 0.24 µg/ml (they do not agree); uncoated SA bead: 1.95.
For experiment [9] the target is unchanged. Briefly: flow cytometry of MICA-coated streptavidin beads, antibody directly PE-conjugated; legend box says 0.024ug, the label in the panel says 0.01 µg/ml (they do not agree); uncoated SA bead: 1.95.
Experiment [10] has the same target. Briefly: flow cytometry of MICA-coated streptavidin beads, antibody directly PE-conjugated; 0.002 µg/ml; uncoated SA bead: 2.16.
Experiment [11] shares this target. Put plainly: flow cytometry of MICA-coated streptavidin beads, antibody directly PE-conjugated; legend box says 0.12ug, the label in the panel says 0.05 µg/ml (they do not agree); uncoated SA bead: 1.95.
The target of experiment [12] is T1, MICA*009 (human, UniProt Q29983 26-307).
T1 construct: also called MICA allele 009
T1 chain: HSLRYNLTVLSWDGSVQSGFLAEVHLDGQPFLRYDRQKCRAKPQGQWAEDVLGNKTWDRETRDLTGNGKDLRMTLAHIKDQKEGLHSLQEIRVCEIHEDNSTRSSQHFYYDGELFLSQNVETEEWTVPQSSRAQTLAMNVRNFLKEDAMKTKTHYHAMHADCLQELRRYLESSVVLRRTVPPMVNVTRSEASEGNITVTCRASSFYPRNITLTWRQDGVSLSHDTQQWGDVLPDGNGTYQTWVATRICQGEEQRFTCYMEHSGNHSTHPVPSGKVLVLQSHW
Put plainly: array of overlapping 20-aa peptides of MICA*009 extracellular domains.

MICA antigen (UniGene Hs.130838) with C-terminal BirA tag (human), sequence (Q29983 other isoform, or with tags, fused parts or gaps limits assumed): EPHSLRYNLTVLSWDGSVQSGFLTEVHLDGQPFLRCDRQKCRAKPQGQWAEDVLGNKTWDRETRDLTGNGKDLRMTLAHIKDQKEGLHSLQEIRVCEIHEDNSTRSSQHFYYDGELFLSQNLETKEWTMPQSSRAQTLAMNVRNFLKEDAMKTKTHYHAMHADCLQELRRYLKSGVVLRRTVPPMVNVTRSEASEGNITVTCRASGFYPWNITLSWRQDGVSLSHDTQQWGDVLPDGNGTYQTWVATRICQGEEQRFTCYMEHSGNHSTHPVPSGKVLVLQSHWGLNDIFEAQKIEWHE

In the case of “negative control antibody (TTCF specific)”, the unnamed fluorescence number (FL1-H) is 2.28 in [1]; 3.43 in experiment [2]; 2.62 in [3]; 2.23 in [4]; 2.27 in [5].

Consider “commercially available anti-MICA/MICB monoclonal antibody (clone 6D4), BioLegend”, for which the unnamed fluorescence number (FL2-H) was found to be 65.9 in experiment [6]; 16.8 in experiment [8]; 194 in [9]; 4.31 in experiment [10]; 391 in [11]. In [7], this molecule returned a Geom. Mean:FL1-H of 188.

B1: CM33322 Ab4 (antibody, V domains shown)
VH: QVQLQESGPGLVRPSGTLSLTCAVSGGSIDYSNWWGWVRQVPGKGLEWIGEVYHTGATHYNPSLERRCIISVDKSNNQVSLQLTSVTAADSAIYYCARERGTHCDGNRCYYVFFDHWGQGIPVTVSS
VL: DIVMTQTPLSSPVTLGQPASISCRSSESLVHWDGTTYLSWFHQRPGQPPRLLIYKVSNRFSGVPDRFSGSGAGTDFTLKISRVEADDVGIYYCMQATQFPRTFGQGTKVEIKR
notes: also called anti-MICA antibody ID-11; antibody ID 11
Regarding B1, in experiment [12], the binding result is on record as “binds”.
